Measured values published in patent US20230279132A1, “TREATMENT OF B CELL MALIGNANCIES” (NOVARTIS AG, priority 2020, published 2023).

Target: B-cell activating factor receptor (BAFF-R) (human) (UniProt Q96RJ3)
Assay: receptor occupancy in patients with CLL given VAY736 i.v. with ibrutinib (clinical study CVAY736Y2102); method not stated

tissue receptor occupancy: > 99%
B1: ianalumab (antibody, human IgG1, kappa, V domains shown)
VH: QVQLQQSGPGLVKPSQTLSLTCAISGDSVSSNSAAWGWIRQSPGRGLEWLGRIYYRSKWYNSYAVSVKSRITINPDTSKNQFSLQLNSVTPEDTAVYYCARYDWVPKIGVFDSWGQGTLVTVSS
VL: DIVLTQSPATLSLSPGERATLSCRASQFISSSYLSWYQQKPGQAPRLLIYGSSSRATGVPARFSGSGSGTDFTLTISSLEPEDFAVYYCQQLYSSPMTFGQGTKVEIKR
